This assay addresses CY5-CAS9:sgRNA complex (1:1 molar ratio) (S. pyogenes), Q99ZW2. The assay is described as follows: fluorescence titration; 5 nM CY5-CAS9:sgRNA (1:1) titrated with peptide, quadratic fit. To be noted: remark: other sources report otherwise.

No end group written: not given here.

CY5-CAS9:sgRNA complex (1:1 molar ratio) (S. pyogenes), Q99ZW2, sequence (Q99ZW2 whole entry, one chain of several): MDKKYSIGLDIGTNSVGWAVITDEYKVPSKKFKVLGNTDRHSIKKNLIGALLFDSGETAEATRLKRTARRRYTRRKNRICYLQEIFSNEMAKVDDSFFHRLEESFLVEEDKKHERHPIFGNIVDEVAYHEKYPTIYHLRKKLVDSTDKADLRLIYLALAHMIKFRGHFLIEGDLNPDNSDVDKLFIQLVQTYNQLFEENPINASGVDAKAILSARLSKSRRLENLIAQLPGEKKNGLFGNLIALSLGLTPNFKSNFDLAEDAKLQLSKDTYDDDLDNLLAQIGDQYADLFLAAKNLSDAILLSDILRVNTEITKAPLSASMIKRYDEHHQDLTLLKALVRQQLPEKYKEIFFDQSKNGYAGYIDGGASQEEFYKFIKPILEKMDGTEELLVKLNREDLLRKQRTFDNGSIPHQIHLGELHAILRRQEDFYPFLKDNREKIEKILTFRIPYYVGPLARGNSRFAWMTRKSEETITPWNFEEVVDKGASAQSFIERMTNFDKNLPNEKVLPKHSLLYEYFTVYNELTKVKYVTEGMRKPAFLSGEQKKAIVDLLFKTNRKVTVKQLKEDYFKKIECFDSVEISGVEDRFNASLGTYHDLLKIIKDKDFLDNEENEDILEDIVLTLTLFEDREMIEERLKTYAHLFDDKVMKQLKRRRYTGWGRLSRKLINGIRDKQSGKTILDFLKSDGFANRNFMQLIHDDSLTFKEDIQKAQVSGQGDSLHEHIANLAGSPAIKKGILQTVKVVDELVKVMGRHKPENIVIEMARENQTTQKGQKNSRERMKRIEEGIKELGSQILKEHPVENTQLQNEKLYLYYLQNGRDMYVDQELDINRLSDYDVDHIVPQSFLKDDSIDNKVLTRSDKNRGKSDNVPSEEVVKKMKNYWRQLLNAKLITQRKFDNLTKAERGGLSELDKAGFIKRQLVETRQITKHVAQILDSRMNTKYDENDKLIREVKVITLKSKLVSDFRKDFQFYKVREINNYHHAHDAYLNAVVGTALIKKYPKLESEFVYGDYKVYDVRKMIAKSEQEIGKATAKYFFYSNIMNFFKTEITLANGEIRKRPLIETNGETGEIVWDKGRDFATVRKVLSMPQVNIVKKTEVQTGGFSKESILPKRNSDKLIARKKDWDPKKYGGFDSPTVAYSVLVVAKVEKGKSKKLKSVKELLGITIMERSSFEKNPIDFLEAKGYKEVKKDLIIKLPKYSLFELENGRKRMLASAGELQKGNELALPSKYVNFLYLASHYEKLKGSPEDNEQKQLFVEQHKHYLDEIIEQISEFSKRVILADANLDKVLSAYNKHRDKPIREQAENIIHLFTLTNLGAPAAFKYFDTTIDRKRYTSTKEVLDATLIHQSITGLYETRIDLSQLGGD

Broadly, the Kd is the equilibrium constant for the complex coming apart. For GLWRALWRLLRSLWRLLWKV (also: acetate salt) [CADY], the Kd came to 21 nM.

These data come from patent EP3464323B1.
